Four sequences from the Immune Epitope Database (IEDB) can be followed below.

Test [1] concerns the target HLA-A*02:06. The experiment in a line: IEDB peptide-MHC binding, purified MHC/competitive/fluorescence; filed as Kd, often an IC50 or EC50 that approximates it; ≥ and ≤ were set here for values at or beyond the usual limits of such assays. Conditions: source organism: Vaccinia virus WR.
Test [2] concerns the target HLA-B*18:01. Described as above.
Test [3] deals with HLA-A*68:02. The description is as above. Conditions: source organism: Vaccinia virus WR.
Test [4] deals with HLA-A*31:01. The test is described as above.
Test [5] deals with HLA-A*30:01. Described as above.
The target in test [6] is HLA-A*26:02. Described as above.
Test [7] concerns the target HLA-B*39:01. The test is described as above. Conditions: source organism: Vaccinia virus WR.
Test [8] has as its target HLA-A*11:01. The description is as above.
The target of test [9] is HLA-B*15:01. The test is described as follows: IEDB peptide-MHC binding, purified MHC/direct/fluorescence; filed as Kd, often an IC50 or EC50 that approximates it; ≥ and ≤ were set here for values at or beyond the usual limits of such assays.
The target of test [10] is HLA-B*07:02. The test is described as above.
The target in test [11] is HLA-A*69:01. Described as above.
The target in test [12] is HLA-A*02:01. The test is described as above.
The target in test [13] is HLA-B*58:01. Described as above.
Test [14] addresses HLA-A*24:03. Described as above. Particulars: source organism: Camelpox virus M-96.
Test [15] deals with HLA-A*01:01. Described as above.
Test [16] deals with HLA-C*07:02. The test is described as above.
Test [17] addresses HLA-B*57:01. Described as above.
In test [18] the target is HLA-B*15:17. Described as above. Particulars: source organism: Camelpox virus M-96.
The target of test [19] is HLA-B*15:17. The test is described as follows: IEDB peptide-MHC binding, purified MHC/competitive/fluorescence; filed as Kd, often an IC50 or EC50 that approximates it; ≥ and ≤ were set here for values at or beyond the usual limits of such assays.
Test [20] has as its target HLA-B*73:01. The test is described as follows: IEDB peptide-MHC binding, purified MHC/direct/fluorescence; filed as Kd, often an IC50 or EC50 that approximates it; ≥ and ≤ were set here for values at or beyond the usual limits of such assays. Conditions: source organism: Influenza A virus (A/chicken/Hubei/wk/1997(H5N1)).
The target in test [21] is HLA-B*48:01. The test is described as above. Conditions: source organism: Influenza A virus (A/chicken/Hubei/wk/1997(H5N1)).
Test [22] deals with HLA-A*68:02. The description is as above.
The target of test [23] is HLA-B*08:01. The description is as above.
Test [24] concerns the target HLA-A*31:01. The description is as above. Particulars: source organism: Influenza A virus (A/chicken/Hubei/wk/1997(H5N1)).
For test [25], the target named is HLA-A*03:01. The description is as above. Conditions: source organism: Influenza A virus (A/chicken/Hubei/wk/1997(H5N1)).
In test [26] the target is HLA-B*15:01. The experiment in a line: IEDB peptide-MHC binding, purified MHC/competitive/fluorescence; filed as Kd, often an IC50 or EC50 that approximates it; ≥ and ≤ were set here for values at or beyond the usual limits of such assays. Conditions: source organism: Vaccinia virus Copenhagen.
Test [27] deals with HLA-A*02:03. Described as above. Particulars: source organism: Vaccinia virus Copenhagen.
In test [28] the target is HLA-B*08:03. The test is described as follows: IEDB peptide-MHC binding, purified MHC/direct/fluorescence; filed as Kd, often an IC50 or EC50 that approximates it; ≥ and ≤ were set here for values at or beyond the usual limits of such assays. Particulars: source organism: Variola virus.
The target of test [29] is HLA-B*15:09. Described as above. Conditions: source organism: Variola virus.
Test [30] has as its target HLA-B*39:01. Described as above. Conditions: source organism: Variola virus.
For test [31], the target named is HLA-A*11:01. The description is as above. Conditions: source organism: Camelpox virus M-96.
Test [32] concerns the target HLA-C*14:02. Described as above. Conditions: source organism: Vaccinia virus Copenhagen.
Test [33] has as its target HLA-B*46:01. The experiment in a line: IEDB peptide-MHC binding, purified MHC/competitive/fluorescence; filed as Kd, often an IC50 or EC50 that approximates it; ≥ and ≤ were set here for values at or beyond the usual limits of such assays. Particulars: source organism: Listeria monocytogenes serotype 1/2a str. F6854.
The target of test [34] is HLA-C*15:02. The experiment in a line: IEDB peptide-MHC binding, purified MHC/direct/fluorescence; filed as Kd, often an IC50 or EC50 that approximates it; ≥ and ≤ were set here for values at or beyond the usual limits of such assays. Conditions: source organism: Listeria monocytogenes serotype 1/2a str. F6854.
The target in test [35] is HLA-C*06:02. The description is as above. Conditions: source organism: Listeria monocytogenes serotype 1/2a str. F6854.
The mark [36] stands for this setting: source organism: Vaccinia virus WR.
Where [37] appears, read: source organism: Camelpox virus M-96.
The mark [38] stands for this setting: source organism: Influenza A virus H3N2.
[39] abbreviates: source organism: Influenza A virus (A/chicken/Hubei/wk/1997(H5N1)).
The mark [40] stands for this setting: source organism: Vaccinia virus Copenhagen.

On to NYFNRMFHF, for which the Kd in test [1] is 3.36 µM; in [2] (setting [36]) it was 0.89 µM; in test [3] it was not below 20 µM; in test [4] (setting [36]) it was 2.3 µM; in test [5] (setting [36]) it was 3.26 µM; in [6] (setting [36]), not below 20 µM. The Kd in [7] was 3 µM; in [8] (setting [36]), not below 20 µM; in [9] (setting [37]), not below 20 µM; in [10] (setting [37]), not below 20 µM; in test [11] (setting [37]), not below 20 µM; in test [12] (setting [37]), not below 20 µM. The Kd in [13] (setting [37]) is not below 20 µM; in test [14] it was 0.0043 µM; in [15] (setting [37]), not below 20 µM; in test [16] (setting [36]) it was 0.003 µM; in test [17] (setting [37]) it was not below 20 µM; in test [18], not below 20 µM.

Regarding MKWMMAMKY, the Kd in [2] (setting [38]) was 0.984 µM; in [5] (setting [38]), 1.08 µM; in [8] (setting [38]), not below 20 µM; in test [19] (setting [38]), 0.912 µM; in test [9] (setting [39]), not below 20 µM; in [20] it was not below 20 µM. Also, the Kd in test [10] (setting [39]), in [11] (setting [39]), in test [21], in test [22] (setting [39]), in [23] (source organism: Influenza A virus(A/swine/Shandong/fNY/2003(H9N2))) and in test [24] was not below 20 µM throughout. Moreover, the Kd in [12] (setting [39]), in test [25], in test [13] (setting [39]), in [15] (setting [39]) and in [17] (setting [39]) was not below 20 µM throughout.

Take KYFDDVTAF: the dissociation constant Kd is 2.07 µM in test [26]; 0.0874 µM in [2] (setting [40]); 2.95 µM in test [4] (setting [40]); not below 20 µM in test [6] (setting [40]); 3.99 µM in test [27]; 4.33 µM in test [19] (setting [40]). For the same sequence, the Kd in test [10] (setting [37]), in test [11] (setting [37]), in test [28], in [22] (setting [37]), in test [29] and in test [23] (source organism: Variola virus) was not below 20 µM each time. For the same sequence, the Kd in [12] (setting [37]) was not below 20 µM; in test [13] (setting [37]), not below 20 µM; in test [14] it was 0.0055 µM; in test [30], not below 20 µM; in [15] (setting [37]) it was not below 20 µM; in test [31], not below 20 µM. Besides, the results for the Kd in [17] (setting [37]) and in test [32] were not below 20 µM and not above 0.001 µM, respectively.

KMIGNLLSF: the Kd in [33] is 1.11 µM; in [34], 2.56 µM; in [35], not below 20 µM; in [16] (source organism: Listeria monocytogenes serotype 1/2a str. F6854) it was 0.666 µM.
